Data: paper PMC6179379, “The IgM pentamer is an asymmetric pentagon with an open groove that binds the AIM protein” (Science Advances, 2018)
Several values for one entry are separate records, joined by “and”; a condition that tells them apart may be missing. Equal entries are not always repeated. Values belong to the molecule of their own block, whether it stands above or below them.

Tests used:
[1] = target: FLAG-tagged mouse IgM-Fc Cys414Ser variant (mouse); assay: negative-stain EM; purified IgM-Fc or IgM made with the J chain, about 15 μg/ml, 1% uranyl acetate; reference-free 2D class averages (RELION)
[2] = target: FLAG-tagged mouse IgM-Fc Cys414Ser variant (mouse); assay: Western blotting after non-reducing SDS-PAGE; supernatant of HEK293T cells co-expressing FLAG-IgM-Fc and HA-J chain; anti-FLAG and anti-HA blots, reducing and nonreducing conditions
[3] = target: FLAG-tagged recombinant human IgM-Fc (human); assay: negative-stain EM; purified IgM-Fc or IgM made with the J chain, about 15 μg/ml, 1% uranyl acetate; reference-free 2D class averages (RELION)
[4] = target: T1, Mouse IgM-Fc pentamer with HA-tagged J chain (mouse, UniProt P01872 1-454; P01592 22-159); assay: co-IP; complex from co-culture supernatant purified on ANTI-FLAG M2 Affinity Gel, then on an anti-AIM antibody column; eluate blotted with anti-HA in a reducing condition, bands quantified with ImageJ; five experiments; details: partners not purified
T1 construct: Mouse immunoglobulin M heavy chain, Fc region: Cμ2-Cμ3-Cμ4 and the short tail; Mouse immunoglobulin J (joining) chain; as m2; also called Fc-pentamer/J-HA; IgM-Fc/J-HA; source: HEK293T transfected with pCAGGS-FLAG-mouse Fc and pCAGGS-mouse J chain-HA, co-cultured with cells expressing AIM-HA; not shown: FLAG, N-terminal, kept; copies: 10 + 1
T1 sequence (looked up) 1: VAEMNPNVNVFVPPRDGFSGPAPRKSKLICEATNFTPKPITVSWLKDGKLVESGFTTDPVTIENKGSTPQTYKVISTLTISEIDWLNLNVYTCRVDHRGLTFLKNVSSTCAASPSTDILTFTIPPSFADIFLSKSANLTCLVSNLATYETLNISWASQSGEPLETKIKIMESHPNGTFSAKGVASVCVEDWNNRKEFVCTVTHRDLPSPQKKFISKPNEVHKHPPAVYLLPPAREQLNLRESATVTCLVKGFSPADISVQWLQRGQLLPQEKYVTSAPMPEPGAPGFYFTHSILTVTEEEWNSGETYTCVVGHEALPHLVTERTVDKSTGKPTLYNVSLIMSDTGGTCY
T1 sequence (looked up) 2: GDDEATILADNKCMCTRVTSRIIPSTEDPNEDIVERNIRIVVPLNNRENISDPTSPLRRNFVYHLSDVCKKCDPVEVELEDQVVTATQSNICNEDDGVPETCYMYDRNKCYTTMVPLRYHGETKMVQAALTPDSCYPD

[5] = target: the molecule itself; assay: negative-stain EM; purified FLAG-tagged mouse IgM-Fc oligomers made in the absence of the J chain; reference-free 2D class averages
[6] = target: the molecule itself; assay: negative-stain EM; purified IgM-Fc or IgM made with the J chain, about 15 μg/ml, 1% uranyl acetate; reference-free 2D class averages (RELION)

Molecule: FLAG-tagged recombinant human IgM-Fc (domain or fragment)
stoichiometry N [3]: 5

B2: FLAG-tagged recombinant mouse IgM-Fc (Cμ2 to tail) (domain or fragment, UniProt P01872 1-454, looked up)
chain: VAEMNPNVNVFVPPRDGFSGPAPRKSKLICEATNFTPKPITVSWLKDGKLVESGFTTDPVTIENKGSTPQTYKVISTLTISEIDWLNLNVYTCRVDHRGLTFLKNVSSTCAASPSTDILTFTIPPSFADIFLSKSANLTCLVSNLATYETLNISWASQSGEPLETKIKIMESHPNGTFSAKGVASVCVEDWNNRKEFVCTVTHRDLPSPQKKFISKPNEVHKHPPAVYLLPPAREQLNLRESATVTCLVKGFSPADISVQWLQRGQLLPQEKYVTSAPMPEPGAPGFYFTHSILTVTEEEWNSGETYTCVVGHEALPHLVTERTVDKSTGKPTLYNVSLIMSDTGGTCY
notes: Mouse immunoglobulin M heavy chain, Fc region: Cμ2-Cμ3-Cμ4 and the short tail (19 amino acids); also called mouse Fc; Fc monomer; source: HEK293T, transfected (pCAGGS-FLAG-IgM-Fc, with or without the J chain plasmid), in culture supernatant; not shown: FLAG, N-terminal, kept
stoichiometry N [5]: 6
stoichiometry N [6]: 5

Now from value to molecule:

stoichiometry N [1]: 4 and 5
stoichiometry N [2]: 4 and 5
Molecule: FLAG-tagged mouse IgM-Fc Cys414Ser variant (domain or fragment)

ratio of HA signal, AIM-HA versus J-HA [4]: 1.3 ± 0.12 J-HA signal per AIM-HA signal
stoichiometry N [4]: 1 AIM per pentamer
B1: HA-tagged mouse AIM (natural protein, UniProt Q9QWK4 22-352, looked up)
chain: ESPTKVQLVGGAHRCEGRVEVEHNGQWGTVCDDGWDRRDVAVVCRELNCGAVIQTPRGASYQPPASEQRVLIQGVDCNGTEDTLAQCELNYDVFDCSHEEDAGAQCENPDSDLLFIPEDVRLVDGPGHCQGRVEVLHQSQWSTVCKAGWNLQVSKVVCRQLGCGRALLTYGSCNKNTQGKGPIWMGKMSCSGQEANLRSCLLSRLENNCTHGEDTWMECEDPFELKLVGGDTPCSGRLEVLHKGSWGSVCDDNWGEKEDQVVCKQLGCGKSLHPSPKTRKIYGPGAGRIWLDDVNCSGKEQSLEFCRHRLWGYHDCTHKEDVEVICTDFDV
notes: Mouse AIM (CD5L), secreted; also called AIM-HA; source: HEK293T, transfected (pCAGGS-AIM-HA), co-cultured with cells expressing FLAG-mouse Fc and J chain-HA; culture supernatant, co-purified with the Fc pentamer
